Source: patent US20230212319A1, “NOVEL ANTIGEN BINDING DOMAINS AND SYNTHETIC ANTIGEN RECEPTORS INCORPORATING THE SAME” (University of Southern California, priority 2020, published 2023)

Tested on: L363 cells
Assay: JNG assay, co-culture with L363 cells
Format: cell-based
Conditions: co-culture with L363
Method: Cellular supernatant is collected and assayed for the induction of cytokines (e.g., IL2).
JNG (Jurkat cells expressing EGFP under an NFAT promoter) were infected with lentiviral vectors encoding different single chain and multi-chain SARs by spinfection in the presence of 8 µg/ml of Polybrene® (Sigma, Catalog no. H9268). The Jurkat-NFAT-GFP cells are engineered in such a way that the IL-2 promoter, which carries NFAT binding sites, is cloned upstream of the GFP gene. These cells have been used to study signaling via TCR and CAR. The different SARs were stably expressed in Jurkat NFAT-GFP cells by lentiviral mediated gene transfer, followed by selection with puromycin or blasticidin. No drug selection was used in case the construct lacked an antibiotic resistance gene. The SAR-expressing Jurkat-NFAT-GFP cells were cocultured with the target cells at E:T ratio of approximately 1:2 for approximately 4 hours to 18 hours. When the interaction between SIRs and their target antigen results in activation of the NFAT pathway, GFP expression is induced. […] GFP expression was monitored by FACS analysis. The Jurkat-NFAT-GFP (parental) cells were used as control. The structure of different constructs can be determined based on their names. […] The sequence of the other constructs in the table can be similarly determined from their names and by referring to the different Tables of this disclosure that provide the names and SEQ ID NO of the different modules. Alternatively, the composition and modular architecture of the different SAR constructs can be determined from their sequences by bioinformatics tools, including using nucleic acid and amino acids homology searches. A SAR is considered positive in the assay in case the SAR expressing Jurkat-NFAT-GFP cells show greater % GFP positive cells when cultured with the target cell line as compared to parental Jurkat-NFAT-GFP cells. […] In general, the number +/-, +, 2+, 3+, 4+, 5+ refer to approximately 5%, 10%, 20%, 30%, 40% and 50% GFP positive cells. The % of GFP induction in the above assay is dependent not only the relative strength of the SAR but also, among other factors, on the relative level of expression of the SAR in the JNG cells and the relative level of expression of the target antigen in the target cell line. To control for the difference in gene transduction efficiency of the different SAR constructs, the experiment was conducted with JNG cells transduced with SAR constructs co-expressing a drug resistance gene (e.g., puromycin or PAC) followed by drug selection to generate a stable population of SAR-expressing cells. It is to be noted that the drug resistance gene (e.g., PAC) in the SAR constructs is optional and in vivo studies were conducted with SAR constructs lacking the PAC gene.

Row | Molecule | NFAT-GFP ASSAY: L363
1 | 22064 (protein) MALPVTALLLPLALLLHAARPQVQLVESGGGLVQPGGSLRLSCAASGFTFTNHAMSWVRQAPGKGLELVSSISGNGRTTYYADSVKGRFTISRDISKNTLDLQMNSLRAEDTAVYYCAKDGGETLVDSRGQGTLVTVSSLEGGGGSGGGGSGGGGSVEDLKNVFPPEVAVFEPSKAEIAHTQKATLVCLATGFYPDHVELSWWVNGKEVHSGVCTDPQPLKEQPALNDSRYCLSSRLRVSATFWQNPRNHFRCQVQFYGLSENDEWTQDRAKPVTQIVSAEAWGRADCGITSASYHQGVLSATILYEILLGKATLYAVLVSALVLMAMVKRKDSRGRAKRSGSGATNFSLLKQAGDVEENPGPTSMDWIWRILFLVGAATGAHSFEEVQLLESGGGLVQPGGSLRLSCAASGFTFSSYAMSWVRQAPGKGLEWVSSISGSGDYIYYADSVKGRFTISRDISKNTLYLQMNSLRAEDTAVYYCAKEGTGANSSLADYRGQGTLVTVSSTRIQNPDPAVYQLRDSKSSDKSVCLFTDFDSQTNVSQSKDSDVYITDKCVLDMRSMDFKSNSAVAWSNKSDFACANAFNNSIIPEDTFFPSPESSCDVKLVEKSFETDTNLNFQNLSVIGFRILLLKVAGFNLLMTLRLWSSRAKRSGSGVKQTLNFDLLKLAGDVESNPGPSRGHMTEYKPTVRLATRDDVPRAVRTLAAAFADYPATRHTVDPDRHIERVTELQELFLTRVGLDIGKVWVADDGAAVAVWTTPESVEAGAVFAEIGPRMAELSGSRLAAQQQMEGLLAPHRPKEPAWFLATVGVSPDHQGKGLGSAVVLPGVEAAERAGVPAFLETSAPRNLPFYERLGFTVTADVEVPEGPRTWCMTRKPGA | L363 (+/-) (refer to approximately 5%, 10%, 20%, 30%, 40% and 50% GFP positive cells)
2 | 22075 (protein) MALPVTALLLPLALLLHAARPQVQLVESGGGLVQPGGSLRLSCAASGFTFTNHAMSWVRQAPGKGLELVSSISGNGRTTYYADSVKGRFTISRDISKNTLDLQMNSLRAEDTAVYYCAKDGGETLVDSRGQGTLVTVSSLEGQPKANPTVTLFPPSSEELQANKATLVCLISDFYPGAVTVAWKADGSPVKAGVETTKPSKQSNNKYAASSYLSLTPEQWKSHRSYSCQVTHEGSTVEKTVAPTECSGRADCGFTSESYQQGVLSATILYEILLGKATLYAVLVSALVLMAMVKRKDSRGRAKRSGSGATNFSLLKQAGDVEENPGPTSMDWIWRILFLVGAATGAHSFEEVQLLESGGGLVQPGGSLRLSCAASGFTFSSYAMSWVRQAPGKGLEWVSSISGSGDYIYYADSVKGRFTISRDISKNTLYLQMNSLRAEDTAVYYCAKEGTGANSSLADYRGQGTLVTVSSTRIQNPDPAVYQLRDSKSSDKSVCLFTDFDSQTNVSQSKDSDVYITDKCVLDMRSMDFKSNSAVAWSNKSDFACANAFNNSIIPEDTFFPSPESSCDVKLVEKSFETDTNLNFQNLSVIGFRILLLKVAGFNLLMTLRLWSSRAKRSGSGVKQTLNFDLLKLAGDVESNPGPSRGHMTEYKPTVRLATRDDVPRAVRTLAAAFADYPATRHTVDPDRHIERVTELQELFLTRVGLDIGKVWVADDGAAVAVWTTPESVEAGAVFAEIGPRMAELSGSRLAAQQQMEGLLAPHRPKEPAWFLATVGVSPDHQGKGLGSAVVLPGVEAAERAGVPAFLETSAPRNLPFYERLGFTVTADVEVPEGPRTWCMTRKPGA | +/- (refer to approximately 5%, 10%, 20%, 30%, 40% and 50% GFP positive cells)
3 | 22063 (protein) MALPVTALLLPLALLLHAARPQVQLVESGGGLVQPGGSLRLSCAASGFTFTNHAMSWVRQAPGKGLELVSSISGNGRTTYYADSVKGRFTISRDISKNTLDLQMNSLRAEDTAVYYCAKDGGETLVDSRGQGTLVTVSSLEAAAKEDLKNVFPPEVAVFEPSEAEISHTQKATLVCLATGFYPDHVELSWWVNGKEVHSGVCTDPQPLKEQPALNDSRYCLSSRLRVSATFWQNPRNHFRCQVQFYGLSENDEWTQDRAKPVTQIVSAEAWGRADCGFTSESYQQGVLSATILYEILLGKATLYAVLVSALVLMAMVKRKDSRGRAKRSGSGATNFSLLKQAGDVEENPGPTSMDWIWRILFLVGAATGAHSFEEVQLLESGGGLVQPGGSLRLSCAASGFTFSSYAMSWVRQAPGKGLEWVSSISGSGDYIYYADSVKGRFTISRDISKNTLYLQMNSLRAEDTAVYYCAKEGTGANSSLADYRGQGTLVTVSSTRIQNPDPAVYQLRDSKSSDKSVCLFTDFDSQTNVSQSKDSDVYITDKCVLDMRSMDFKSNSAVAWSNKSDFACANAFNNSIIPEDTFFPSPESSCDVKLVEKSFETDTNLNFQNLSVIGFRILLLKVAGFNLLMTLRLWSSRAKRSGSGVKQTLNFDLLKLAGDVESNPGPSRGHMTEYKPTVRLATRDDVPRAVRTLAAAFADYPATRHTVDPDRHIERVTELQELFLTRVGLDIGKVWVADDGAAVAVWTTPESVEAGAVFAEIGPRMAELSGSRLAAQQQMEGLLAPHRPKEPAWFLATVGVSPDHQGKGLGSAVVLPGVEAAERAGVPAFLETSAPRNLPFYERLGFTVTADVEVPEGPRTWCMTRKPGA | L363 (+/-) (refer to approximately 5%, 10%, 20%, 30%, 40% and 50% GFP positive cells)
4 | 21990 (protein) MALPVTALLLPLALLLHAARPQVQLVESGGGLVQPGGSLRLSCAASGFTFTNHAMSWVRQAPGKGLELVSSISGNGRTTYYADSVKGRFTISRDISKNTLDLQMNSLRAEDTAVYYCAKDGGETLVDSRGQGTLVTVSSLEDLKNVFPPEVAVFEPSEAEISHTQKATLVCLATGFYPDHVELSWWVNGKEVHSGVCTDPQPLKEQPALNDSRYCLSSRLRVSATFWQNPRNHFRCQVQFYGLSENDEWTQDRAKPVTQIVSAEAWGRADCGFTSESYQQGVLSATILYEILLGKATLYAVLVSALVLMAMVKRKDSRGRAKRSGSGATNFSLLKQAGDVEENPGPTSMDWIWRILFLVGAATGAHSFEVQLLESGGGLIQPGGSLRLSCAASGFTFSSHAMTWVRQAPGKGLEWVSAISGSGDYTHYADSVKGRFTISRDNSKNTVYLQMNSLRAEDSAVYYCAKDEDGGSLLGHRGQGTLVTVSSTRIQNPDPAVYQLRDSKSSDKSVCLFTDFDSQTNVSQSKDSDVYITDKCVLDMRSMDFKSNSAVAWSNKSDFACANAFNNSIIPEDTFFPSPESSCDVKLVEKSFETDTNLNFQNLSVIGFRILLLKVAGFNLLMTLRLWSSRAKRSGSGVKQTLNFDLLKLAGDVESNPGPSRGHMTEYKPTVRLATRDDVPRAVRTLAAAFADYPATRHTVDPDRHIERVTELQELFLTRVGLDIGKVWVADDGAAVAVWTTPESVEAGAVFAEIGPRMAELSGSRLAAQQQMEGLLAPHRPKEPAWFLATVGVSPDHQGKGLGSAVVLPGVEAAERAGVPAFLETSAPRNLPFYERLGFTVTADVEVPEGPRTWCMTRKPGA | + (refer to approximately 5%, 10%, 20%, 30%, 40% and 50% GFP positive cells)
5 | 22062 (protein) MALPVTALLLPLALLLHAARPQVQLVESGGGLVQPGGSLRLSCAASGFTFTNHAMSWVRQAPGKGLELVSSISGNGRTTYYADSVKGRFTISRDISKNTLDLQMNSLRAEDTAVYYCAKDGGETLVDSRGQGTLVTVSSLEVAALEREDLKNVFPPEVAVFEPSEAEISHTQKATLVCLATGFYPDHVELSWWVNGKEVHSGVCTDPQPLKEQPALNDSRYCLSSRLRVSATFWQNPRNHFRCQVQFYGLSENDEWTQDRAKPVTQIVSAEAWGRADCGFTSESYQQGVLSATILYEILLGKATLYAVLVSALVLMAMVKRKDSRGRAKRSGSGATNFSLLKQAGDVEENPGPTSMDWIWRILFLVGAATGAHSFEEVQLLESGGGLVQPGGSLRLSCAASGFTFSSYAMSWVRQAPGKGLEWVSSISGSGDYIYYADSVKGRFTISRDISKNTLYLQMNSLRAEDTAVYYCAKEGTGANSSLADYRGQGTLVTVSSTRIQNPDPAVYQLRDSKSSDKSVCLFTDFDSQTNVSQSKDSDVYITDKCVLDMRSMDFKSNSAVAWSNKSDFACANAFNNSIIPEDTFFPSPESSCDVKLVEKSFETDTNLNFQNLSVIGFRILLLKVAGFNLLMTLRLWSSRAKRSGSGVKQTLNFDLLKLAGDVESNPGPSRGHMTEYKPTVRLATRDDVPRAVRTLAAAFADYPATRHTVDPDRHIERVTELQELFLTRVGLDIGKVWVADDGAAVAVWTTPESVEAGAVFAEIGPRMAELSGSRLAAQQQMEGLLAPHRPKEPAWFLATVGVSPDHQGKGLGSAVVLPGVEAAERAGVPAFLETSAPRNLPFYERLGFTVTADVEVPEGPRTWCMTRKPGA | L363 (+/-) (refer to approximately 5%, 10%, 20%, 30%, 40% and 50% GFP positive cells)
